Data published in publication PMC10149743, “Structural studies of the nucleus-like assembly of jumbo bacteriophage 201φ2-1” (Frontiers in Microbiology, 2023).

Experiments:
[1] = molecular target: the molecule itself; assay: SEC; truncation mutants of gp105, purified as the wild type, Superose 6 Increase 10/300 GL in buffer B (20 mM HEPES pH 7.5, 150 mM NaCl); self-association
[2] = molecular target: the molecule itself; assay: cryo-EM structure; cube-like particles from the 11.4 ml SEC peak; reconstruction with O symmetry (4.76 Å) and without symmetry (6.41 Å)

B1: gp105Δ(loop 279–285) (natural protein, Pseudomonas phage 201phi2-1, UniProt B3FIW8 1-631, looked up)
chain: MIRDTATNTTQTQAAPQQAPAQQFTQAPQEKPMQSTQSQPTPSYAGTGGINSQFTRSGNVQGGDARASEALTVFTRLKEQAVAQQDLADDFSILRFDRDQHQVGWSSLVIAKQISLNGQPVIAVRPLILPNNSIELPKRKTNIVNGMQTDVIESDIDVGTVFSAQYFNRLSTYVQNTLGKPGAKVVLAGPFPIPADLVLKDSELQLRNLLIKSVNACDDILALHSGERPFTIAGLKGQQGETLAAKVDIRTQPLHDTVGNPIRADIVVTTQRVRRNGQTDVKLNQVAMFTNLERTPQAQAQTLFPNQQQVATPAPWVASVVITDVRNADGIQANTPEMYWFALSNAFRSTHGHAWARPFLPMTGVAKDMKDIGALGWMSALRNRIDTKAANFDDAQFGQLMLSQVQPNPVFQIDLNRMGETAQMDSLQLDAAGGPNAQKAAATIIRQINNLGGGGFERFFDHTTQPILERTGQVIDLGNWFDGDEKRDRRDLDNLAALNAAEGNENEFWGFYGAQLNPNLHPDLRNRQSRNYDRQYLGSTVTYTGKAERCTYNAKFIEALDRYLAEAGLQITMDNTSVLNSGQRFMGNSVIGNNMVSGQAQVHSAYAGTQGFNTQYQTGPSSFY
notes: gp105 of Pseudomonas phage 201phi2-1, GenBank ABY62937, loop residues 279-285 deleted; source: E. coli BL21 (DE3) pLysS, purified using the same method as for the wild type gp105
binding result [1]: binds

B2: gp105Δ(NTS 1–17) (domain or fragment, Pseudomonas phage 201phi2-1, UniProt B3FIW8 18-631, looked up)
chain: QAPAQQFTQAPQEKPMQSTQSQPTPSYAGTGGINSQFTRSGNVQGGDARASEALTVFTRLKEQAVAQQDLADDFSILRFDRDQHQVGWSSLVIAKQISLNGQPVIAVRPLILPNNSIELPKRKTNIVNGMQTDVIESDIDVGTVFSAQYFNRLSTYVQNTLGKPGAKVVLAGPFPIPADLVLKDSELQLRNLLIKSVNACDDILALHSGERPFTIAGLKGQQGETLAAKVDIRTQPLHDTVGNPIRADIVVTTQRVRRNGQQENEFYETDVKLNQVAMFTNLERTPQAQAQTLFPNQQQVATPAPWVASVVITDVRNADGIQANTPEMYWFALSNAFRSTHGHAWARPFLPMTGVAKDMKDIGALGWMSALRNRIDTKAANFDDAQFGQLMLSQVQPNPVFQIDLNRMGETAQMDSLQLDAAGGPNAQKAAATIIRQINNLGGGGFERFFDHTTQPILERTGQVIDLGNWFDGDEKRDRRDLDNLAALNAAEGNENEFWGFYGAQLNPNLHPDLRNRQSRNYDRQYLGSTVTYTGKAERCTYNAKFIEALDRYLAEAGLQITMDNTSVLNSGQRFMGNSVIGNNMVSGQAQVHSAYAGTQGFNTQYQTGPSSFY
notes: gp105 of Pseudomonas phage 201phi2-1, GenBank ABY62937, residues 1-17 removed; Truncation made by PCR and In-Fusion cloning into pET28a; source: E. coli BL21 (DE3) pLysS, purified using the same method as for the wild type gp105
binding result [1]: binds

B3: nucleus-like shell protein gp105 of bacteriophage 201φ2-1, wild type, C-terminal His6 (natural protein, Pseudomonas phage 201phi2-1, UniProt B3FIW8 1-631, looked up)
chain: MIRDTATNTTQTQAAPQQAPAQQFTQAPQEKPMQSTQSQPTPSYAGTGGINSQFTRSGNVQGGDARASEALTVFTRLKEQAVAQQDLADDFSILRFDRDQHQVGWSSLVIAKQISLNGQPVIAVRPLILPNNSIELPKRKTNIVNGMQTDVIESDIDVGTVFSAQYFNRLSTYVQNTLGKPGAKVVLAGPFPIPADLVLKDSELQLRNLLIKSVNACDDILALHSGERPFTIAGLKGQQGETLAAKVDIRTQPLHDTVGNPIRADIVVTTQRVRRNGQQENEFYETDVKLNQVAMFTNLERTPQAQAQTLFPNQQQVATPAPWVASVVITDVRNADGIQANTPEMYWFALSNAFRSTHGHAWARPFLPMTGVAKDMKDIGALGWMSALRNRIDTKAANFDDAQFGQLMLSQVQPNPVFQIDLNRMGETAQMDSLQLDAAGGPNAQKAAATIIRQINNLGGGGFERFFDHTTQPILERTGQVIDLGNWFDGDEKRDRRDLDNLAALNAAEGNENEFWGFYGAQLNPNLHPDLRNRQSRNYDRQYLGSTVTYTGKAERCTYNAKFIEALDRYLAEAGLQITMDNTSVLNSGQRFMGNSVIGNNMVSGQAQVHSAYAGTQGFNTQYQTGPSSFY
notes: gp105 (nucleus-like shell protein, chimallin) of Pseudomonas phage 201phi2-1, GenBank ABY62937; 631 amino acids; synthesised codon-optimised gene in pET28a; residues 1-48 and 583-631 are named as present but not built in the model; Occurs as monomer, 24-mer cube-like particle and large sheet-like assemblies; also called NLSP; source: E. coli BL21 (DE3) pLysS, purified (cobalt resin, Superose 6 …)
stoichiometry N [2]: 24

B4: gp105Δ(NTS 1–60) (domain or fragment, Pseudomonas phage 201phi2-1, UniProt B3FIW8 61-631, looked up)
chain: QGGDARASEALTVFTRLKEQAVAQQDLADDFSILRFDRDQHQVGWSSLVIAKQISLNGQPVIAVRPLILPNNSIELPKRKTNIVNGMQTDVIESDIDVGTVFSAQYFNRLSTYVQNTLGKPGAKVVLAGPFPIPADLVLKDSELQLRNLLIKSVNACDDILALHSGERPFTIAGLKGQQGETLAAKVDIRTQPLHDTVGNPIRADIVVTTQRVRRNGQQENEFYETDVKLNQVAMFTNLERTPQAQAQTLFPNQQQVATPAPWVASVVITDVRNADGIQANTPEMYWFALSNAFRSTHGHAWARPFLPMTGVAKDMKDIGALGWMSALRNRIDTKAANFDDAQFGQLMLSQVQPNPVFQIDLNRMGETAQMDSLQLDAAGGPNAQKAAATIIRQINNLGGGGFERFFDHTTQPILERTGQVIDLGNWFDGDEKRDRRDLDNLAALNAAEGNENEFWGFYGAQLNPNLHPDLRNRQSRNYDRQYLGSTVTYTGKAERCTYNAKFIEALDRYLAEAGLQITMDNTSVLNSGQRFMGNSVIGNNMVSGQAQVHSAYAGTQGFNTQYQTGPSSFY
notes: gp105 of Pseudomonas phage 201phi2-1, GenBank ABY62937, residues 1-60 removed; Truncation made by PCR and In-Fusion cloning into pET28a; source: E. coli BL21 (DE3) pLysS, purified using the same method as for the wild type gp105
binding result [1]: binds

B5: gp105Δ(NTS 1–17, CTS 609–631) (domain or fragment, Pseudomonas phage 201phi2-1, UniProt B3FIW8 18-608, looked up)
chain: QAPAQQFTQAPQEKPMQSTQSQPTPSYAGTGGINSQFTRSGNVQGGDARASEALTVFTRLKEQAVAQQDLADDFSILRFDRDQHQVGWSSLVIAKQISLNGQPVIAVRPLILPNNSIELPKRKTNIVNGMQTDVIESDIDVGTVFSAQYFNRLSTYVQNTLGKPGAKVVLAGPFPIPADLVLKDSELQLRNLLIKSVNACDDILALHSGERPFTIAGLKGQQGETLAAKVDIRTQPLHDTVGNPIRADIVVTTQRVRRNGQQENEFYETDVKLNQVAMFTNLERTPQAQAQTLFPNQQQVATPAPWVASVVITDVRNADGIQANTPEMYWFALSNAFRSTHGHAWARPFLPMTGVAKDMKDIGALGWMSALRNRIDTKAANFDDAQFGQLMLSQVQPNPVFQIDLNRMGETAQMDSLQLDAAGGPNAQKAAATIIRQINNLGGGGFERFFDHTTQPILERTGQVIDLGNWFDGDEKRDRRDLDNLAALNAAEGNENEFWGFYGAQLNPNLHPDLRNRQSRNYDRQYLGSTVTYTGKAERCTYNAKFIEALDRYLAEAGLQITMDNTSVLNSGQRFMGNSVIGNNMVSGQAQ
notes: gp105 of Pseudomonas phage 201phi2-1, GenBank ABY62937, residues 1-17 and 609-631 removed; Truncation made by PCR and In-Fusion cloning into pET28a; source: E. coli BL21 (DE3) pLysS, purified using the same method as for the wild type gp105
binding result [1]: binds
